From article PMC13167773, “Chiral inversion mutagenesis identifies geometrically constrained residues within self-associating low-complexity domains” (Proceedings of the National Academy of Sciences of the …, 2026)

T1: wild-type glutathione S-transferase (GST)-EMD LCD fusion protein
T1 sequence (P50402 whole entry, species assumed, looked up): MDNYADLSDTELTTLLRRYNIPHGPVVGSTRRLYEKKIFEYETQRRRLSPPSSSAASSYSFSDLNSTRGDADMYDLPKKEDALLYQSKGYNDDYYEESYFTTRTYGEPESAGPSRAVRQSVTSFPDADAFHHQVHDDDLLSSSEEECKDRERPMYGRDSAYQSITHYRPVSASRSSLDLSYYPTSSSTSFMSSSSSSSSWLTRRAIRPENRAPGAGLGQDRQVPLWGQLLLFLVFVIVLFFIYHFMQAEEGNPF


Molecular target: the molecule itself
Test: turbidity (absorbance at 395 nm); synthetic NEFL head domain 5×D library, 100 μM LCD, A395, n = 3
Details: not given

Molecule	binding result
synthetic NEFL head domain (residues 2 to 74), WT (domain or fragment, UniProt P07196 2-74, looked up, neurofilament light chain (NEFL) head domain residues 2 to 74, ligation junction cysteine S31C and D72E; also called WT head domain; NEFL LCD; source: fully synthetic: NEFL-P1 (2 to 30, MesNa thioester) ligated to NEFL-P2 (31 to 74) by native chemical ligation; RP-HPLC purified) SSFSYEPYYSTSYKRRYVETPRVHISSVRCGYSTARSAYSSYSAPVSSSLSVRRSYSSSSGSLMPSLENLELS	binds

Tested on: not listed separately
Test: turbidity (absorbance at 395 nm); untagged recombinant EMD LCD 3×Pro library, 60 μM LCD, transfer from denaturing to native Tris buffer, n = 3; self-association read as precipitation
Details: other: turbidity (absorbance at 395 nm)

Molecule	fold reduction of turbidity relative to WT
untagged EMD LCD 3×Pro_(193-196)	16.6 fold
untagged EMD LCD 3×Pro_(183-186)	modestly reduces turbidity by 2.8-fold relative to WT
untagged EMD LCD 3×Pro_(203-206)	14.3-fold
untagged EMD LCD 3×Pro_(198-201)	34.7 fold
untagged EMD LCD 3×Pro_(188-191)	108 fold

Molecular target: T1, wild-type glutathione S-transferase (GST)-EMD LCD fusion protein
Test: pull-down; WT GST-EMD LCD immobilized on glutathione resin, incubated with HA-tagged EMD LCD prey (50 nM), washed with binding buffer, eluted with GSH; anti-HA Western blot of eluent relative to input, densitometry, n = 3
Details: not given

fold reduction of pulldown relative to WT	fold difference of pulldown from WT	Molecule
8.8 fold	–	HA-tagged semisynthetic EMD LCD 3×D_(191-195) (domain or fragment, three D-amino acids at alternating positions, 3×D_(191-195)) RRLSPPSSSAASSYSFSDLNSTRGDADMYDLPKKEDALLYQSKGYNDDYYEESYFTTRTYGEPESAGPSRAVRQSVTSFPDADAFHHQVHDDDLLSSSEEECKDRERPMYGRDSAYQSITHYRPVSASRSSLDLSYYPTSSSTCFMSSSSSSSSWLTRRAIRPENRAPGAGLGQER
7.9 fold	–	HA-tagged semisynthetic EMD LCD 3×D_(195-199) (domain or fragment, three D-amino acids at alternating positions, 3×D_(195-199)) RRLSPPSSSAASSYSFSDLNSTRGDADMYDLPKKEDALLYQSKGYNDDYYEESYFTTRTYGEPESAGPSRAVRQSVTSFPDADAFHHQVHDDDLLSSSEEECKDRERPMYGRDSAYQSITHYRPVSASRSSLDLSYYPTSSSTCFMSSSSSSSSWLTRRAIRPENRAPGAGLGQER
–	1.7 fold	HA-tagged semisynthetic EMD LCD 3×D_(211-215) (domain or fragment, three D-amino acids at alternating positions, 3×D_(211-215)) RRLSPPSSSAASSYSFSDLNSTRGDADMYDLPKKEDALLYQSKGYNDDYYEESYFTTRTYGEPESAGPSRAVRQSVTSFPDADAFHHQVHDDDLLSSSEEECKDRERPMYGRDSAYQSITHYRPVSASRSSLDLSYYPTSSSTCFMSSSSSSSSWLTRRAIRPENRAPGAGLGQER
3.6 fold	–	HA-tagged semisynthetic EMD LCD 3×D_(203-207) (domain or fragment, three D-amino acids at alternating positions, 3×D_(203-207)) RRLSPPSSSAASSYSFSDLNSTRGDADMYDLPKKEDALLYQSKGYNDDYYEESYFTTRTYGEPESAGPSRAVRQSVTSFPDADAFHHQVHDDDLLSSSEEECKDRERPMYGRDSAYQSITHYRPVSASRSSLDLSYYPTSSSTCFMSSSSSSSSWLTRRAIRPENRAPGAGLGQER
6.2 fold	–	HA-tagged semisynthetic EMD LCD 3×D_(199-203) (domain or fragment, three D-amino acids at alternating positions, 3×D_(199-203)) RRLSPPSSSAASSYSFSDLNSTRGDADMYDLPKKEDALLYQSKGYNDDYYEESYFTTRTYGEPESAGPSRAVRQSVTSFPDADAFHHQVHDDDLLSSSEEECKDRERPMYGRDSAYQSITHYRPVSASRSSLDLSYYPTSSSTCFMSSSSSSSSWLTRRAIRPENRAPGAGLGQER
–	1.8 fold	HA-tagged semisynthetic EMD LCD 3×D_(207-211) (domain or fragment, three D-amino acids at alternating positions, 3×D_(207-211)) RRLSPPSSSAASSYSFSDLNSTRGDADMYDLPKKEDALLYQSKGYNDDYYEESYFTTRTYGEPESAGPSRAVRQSVTSFPDADAFHHQVHDDDLLSSSEEECKDRERPMYGRDSAYQSITHYRPVSASRSSLDLSYYPTSSSTCFMSSSSSSSSWLTRRAIRPENRAPGAGLGQER

Molecular target: T1, wild-type glutathione S-transferase (GST)-EMD LCD fusion protein
Test: as above
Details: not given
Remark: another data set of the same source

fold reduction of pulldown relative to WT	Molecule
3.4 fold	HA-tagged EMD LCD 3×Pro_(198-201) (domain or fragment)
2.2 fold	HA-tagged EMD LCD 3×Pro_(183-186) (domain or fragment)
5.9 fold	HA-tagged EMD LCD 3×Pro_(193-196) (domain or fragment)
5 fold	HA-tagged EMD LCD 3×Pro_(188-191) (domain or fragment)

Molecular target: P07196
Test: turbidity (absorbance at 395 nm); synthetic NEFL head domain 5×D library, 100 μM LCD, A395, n = 3
Details: other: turbidity (absorbance at 395 nm)

Molecule	fold decrease in turbidity relative to WT
synthetic NEFL head domain 5×D_(22-30) (protein) SSFSYEPYYSTSYKRRYVETPRVHISSVRCGYSTARSAYSSYSAPVSSSLSVRRSYSSSSGSLMPSLENLELS	9.1-fold
synthetic NEFL head domain 5×D_(33-41) (protein) SSFSYEPYYSTSYKRRYVETPRVHISSVRCGYSTARSAYSSYSAPVSSSLSVRRSYSSSSGSLMPSLENLELS	20-fold
synthetic NEFL head domain 5×D_(53-63) (protein) SSFSYEPYYSTSYKRRYVETPRVHISSVRCGYSTARSAYSSYSAPVSSSLSVRRSYSSSSGSLMPSLENLELS	1.6-fold
synthetic NEFL head domain 5×D_(43-51) (protein) SSFSYEPYYSTSYKRRYVETPRVHISSVRCGYSTARSAYSSYSAPVSSSLSVRRSYSSSSGSLMPSLENLELS	2.7-fold
synthetic NEFL head domain 5×D_(63-71) (protein) SSFSYEPYYSTSYKRRYVETPRVHISSVRCGYSTARSAYSSYSAPVSSSLSVRRSYSSSSGSLMPSLENLELS	1 fold

Molecular target: the molecule itself
Test: turbidity (absorbance at 395 nm); untagged semisynthetic EMD LCD ChIM library, 50 μM LCD, rapid dilution from strong denaturant into physiological buffer, n = 3
Details: not given

Molecule	binding result
untagged semisynthetic EMD LCD (residues 46 to 221), all-L-WT (domain or fragment, UniProt P50402 46-221, looked up, Emerin (EMD) LCD residues 46 to 221, S189C and D220E; Rink amide resin implies a C-terminal amide (surmised); also called WT variant; source: RP-HPLC purified) RRLSPPSSSAASSYSFSDLNSTRGDADMYDLPKKEDALLYQSKGYNDDYYEESYFTTRTYGEPESAGPSRAVRQSVTSFPDADAFHHQVHDDDLLSSSEEECKDRERPMYGRDSAYQSITHYRPVSASRSSLDLSYYPTSSSTCFMSSSSSSSSWLTRRAIRPENRAPGAGLGQER	binds

Molecular target: P50402
Test: as above
Details: other: turbidity (absorbance at 395 nm)

Molecule	fold decrease in turbidity	fold decrease in turbidity relative to WT
untagged semisynthetic EMD LCD 3×D_(195-199) (protein) RRLSPPSSSAASSYSFSDLNSTRGDADMYDLPKKEDALLYQSKGYNDDYYEESYFTTRTYGEPESAGPSRAVRQSVTSFPDADAFHHQVHDDDLLSSSEEECKDRERPMYGRDSAYQSITHYRPVSASRSSLDLSYYPTSSSTCFMSSSSSSSSWLTRRAIRPENRAPGAGLGQER	2.8 fold	–
untagged semisynthetic EMD LCD 3×D_(203-207) (protein) RRLSPPSSSAASSYSFSDLNSTRGDADMYDLPKKEDALLYQSKGYNDDYYEESYFTTRTYGEPESAGPSRAVRQSVTSFPDADAFHHQVHDDDLLSSSEEECKDRERPMYGRDSAYQSITHYRPVSASRSSLDLSYYPTSSSTCFMSSSSSSSSWLTRRAIRPENRAPGAGLGQER	a modest 1.4-fold decrease in turbidity	–
untagged semisynthetic EMD LCD 3×D_(191-195) (protein) RRLSPPSSSAASSYSFSDLNSTRGDADMYDLPKKEDALLYQSKGYNDDYYEESYFTTRTYGEPESAGPSRAVRQSVTSFPDADAFHHQVHDDDLLSSSEEECKDRERPMYGRDSAYQSITHYRPVSASRSSLDLSYYPTSSSTCFMSSSSSSSSWLTRRAIRPENRAPGAGLGQER	13.3 fold	–
untagged semisynthetic EMD LCD 3×D_(199-203) (protein) RRLSPPSSSAASSYSFSDLNSTRGDADMYDLPKKEDALLYQSKGYNDDYYEESYFTTRTYGEPESAGPSRAVRQSVTSFPDADAFHHQVHDDDLLSSSEEECKDRERPMYGRDSAYQSITHYRPVSASRSSLDLSYYPTSSSTCFMSSSSSSSSWLTRRAIRPENRAPGAGLGQER	2.1-fold	–
semisynthetic EMD LCD with a central 1×D inversion within the 3×D_(191-195) variant (protein) RRLSPPSSSAASSYSFSDLNSTRGDADMYDLPKKEDALLYQSKGYNDDYYEESYFTTRTYGEPESAGPSRAVRQSVTSFPDADAFHHQVHDDDLLSSSEEECKDRERPMYGRDSAYQSITHYRPVSASRSSLDLSYYPTSSSTCFMSSSSSSSSWLTRRAIRPENRAPGAGLGQER	–	a 6.4-fold decrease in turbidity relative to WT
